Experimental data as given in EP4442276A1 (INSTITUT PASTEUR, dated 2024).

Legend:
Assay in all cases: ELISA on coated recombinant spike trimer
[1] = biological target: T1, Trimeric MERS-CoV spike ectodomain (tri-S) (MERS-CoV, UniProt K9N5Q8 18-1296)
T1 construct: extracellular domain
T1 sequence: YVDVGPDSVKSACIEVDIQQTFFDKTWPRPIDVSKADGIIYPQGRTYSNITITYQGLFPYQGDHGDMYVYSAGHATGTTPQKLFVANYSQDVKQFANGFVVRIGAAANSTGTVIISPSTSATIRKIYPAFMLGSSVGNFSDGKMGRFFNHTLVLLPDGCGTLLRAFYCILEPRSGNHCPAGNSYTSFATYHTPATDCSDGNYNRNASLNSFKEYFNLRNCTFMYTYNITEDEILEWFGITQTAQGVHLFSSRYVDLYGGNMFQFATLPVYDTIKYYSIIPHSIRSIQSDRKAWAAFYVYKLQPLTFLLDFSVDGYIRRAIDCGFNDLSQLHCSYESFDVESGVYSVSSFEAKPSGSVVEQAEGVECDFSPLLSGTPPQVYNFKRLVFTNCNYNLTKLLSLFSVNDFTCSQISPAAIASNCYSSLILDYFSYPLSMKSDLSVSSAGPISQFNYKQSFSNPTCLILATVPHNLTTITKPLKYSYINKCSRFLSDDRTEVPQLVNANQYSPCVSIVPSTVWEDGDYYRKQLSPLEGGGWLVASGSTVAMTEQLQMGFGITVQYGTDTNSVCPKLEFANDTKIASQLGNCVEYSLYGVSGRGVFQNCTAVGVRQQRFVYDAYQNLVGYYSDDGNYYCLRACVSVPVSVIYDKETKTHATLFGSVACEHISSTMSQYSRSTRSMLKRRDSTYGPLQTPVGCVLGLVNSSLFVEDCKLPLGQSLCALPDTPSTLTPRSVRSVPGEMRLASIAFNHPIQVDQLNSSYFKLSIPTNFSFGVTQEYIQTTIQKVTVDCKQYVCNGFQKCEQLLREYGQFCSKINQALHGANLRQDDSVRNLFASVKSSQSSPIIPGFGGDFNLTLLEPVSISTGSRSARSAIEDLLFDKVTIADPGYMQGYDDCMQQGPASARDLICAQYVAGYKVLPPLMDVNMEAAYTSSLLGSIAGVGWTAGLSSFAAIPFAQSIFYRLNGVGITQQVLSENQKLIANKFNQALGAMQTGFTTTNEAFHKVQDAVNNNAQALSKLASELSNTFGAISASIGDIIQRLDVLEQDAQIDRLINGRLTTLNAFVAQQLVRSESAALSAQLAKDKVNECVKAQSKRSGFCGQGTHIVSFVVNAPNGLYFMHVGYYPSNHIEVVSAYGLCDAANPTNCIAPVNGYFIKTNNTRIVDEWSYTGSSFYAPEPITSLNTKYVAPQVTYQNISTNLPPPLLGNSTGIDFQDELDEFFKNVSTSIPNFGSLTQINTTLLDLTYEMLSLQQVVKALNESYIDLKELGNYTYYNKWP

[2] = biological target: T2, Trimeric HKU1-CoV spike ectodomain (tri-S) (HKU1-CoV, UniProt Q5MQD0 13-1300)
T2 construct: extracellular domain
T2 sequence: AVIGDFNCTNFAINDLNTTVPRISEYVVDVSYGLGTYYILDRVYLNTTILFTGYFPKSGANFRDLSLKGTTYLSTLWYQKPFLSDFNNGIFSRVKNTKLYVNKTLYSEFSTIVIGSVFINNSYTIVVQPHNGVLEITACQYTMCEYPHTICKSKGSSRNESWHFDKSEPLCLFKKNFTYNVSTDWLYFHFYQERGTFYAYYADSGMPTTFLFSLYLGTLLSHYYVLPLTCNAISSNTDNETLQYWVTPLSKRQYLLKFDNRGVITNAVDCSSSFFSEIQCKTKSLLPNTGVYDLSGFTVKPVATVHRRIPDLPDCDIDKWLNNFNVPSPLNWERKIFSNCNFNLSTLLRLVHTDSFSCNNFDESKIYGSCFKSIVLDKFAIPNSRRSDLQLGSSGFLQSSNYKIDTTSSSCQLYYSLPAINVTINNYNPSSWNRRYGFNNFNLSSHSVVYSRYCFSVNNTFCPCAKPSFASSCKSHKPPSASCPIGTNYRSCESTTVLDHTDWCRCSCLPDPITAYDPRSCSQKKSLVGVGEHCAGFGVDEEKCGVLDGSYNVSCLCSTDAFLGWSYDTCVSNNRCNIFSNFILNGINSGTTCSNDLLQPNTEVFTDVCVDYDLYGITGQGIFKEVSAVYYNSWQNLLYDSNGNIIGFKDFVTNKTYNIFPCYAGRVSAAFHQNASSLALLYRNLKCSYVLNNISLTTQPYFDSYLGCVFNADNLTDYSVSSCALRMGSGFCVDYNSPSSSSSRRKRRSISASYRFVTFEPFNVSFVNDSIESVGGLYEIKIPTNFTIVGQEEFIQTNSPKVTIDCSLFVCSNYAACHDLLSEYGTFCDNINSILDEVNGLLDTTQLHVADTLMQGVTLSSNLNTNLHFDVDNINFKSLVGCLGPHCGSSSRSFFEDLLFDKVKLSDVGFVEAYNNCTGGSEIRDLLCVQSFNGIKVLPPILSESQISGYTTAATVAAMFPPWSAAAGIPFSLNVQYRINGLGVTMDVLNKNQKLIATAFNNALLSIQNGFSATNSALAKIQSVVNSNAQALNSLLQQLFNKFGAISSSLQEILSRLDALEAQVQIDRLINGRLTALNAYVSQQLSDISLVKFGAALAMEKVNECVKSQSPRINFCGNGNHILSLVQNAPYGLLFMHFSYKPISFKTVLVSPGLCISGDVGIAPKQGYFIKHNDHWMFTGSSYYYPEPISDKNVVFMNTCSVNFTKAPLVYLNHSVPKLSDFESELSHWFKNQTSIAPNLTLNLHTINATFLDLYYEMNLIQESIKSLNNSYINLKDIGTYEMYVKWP

[3] = biological target: T3, Trimeric OC43-CoV spike ectodomain (tri-S) (OC43-CoV, UniProt P36334 14-1297)
T3 construct: extracellular domain
T3 sequence: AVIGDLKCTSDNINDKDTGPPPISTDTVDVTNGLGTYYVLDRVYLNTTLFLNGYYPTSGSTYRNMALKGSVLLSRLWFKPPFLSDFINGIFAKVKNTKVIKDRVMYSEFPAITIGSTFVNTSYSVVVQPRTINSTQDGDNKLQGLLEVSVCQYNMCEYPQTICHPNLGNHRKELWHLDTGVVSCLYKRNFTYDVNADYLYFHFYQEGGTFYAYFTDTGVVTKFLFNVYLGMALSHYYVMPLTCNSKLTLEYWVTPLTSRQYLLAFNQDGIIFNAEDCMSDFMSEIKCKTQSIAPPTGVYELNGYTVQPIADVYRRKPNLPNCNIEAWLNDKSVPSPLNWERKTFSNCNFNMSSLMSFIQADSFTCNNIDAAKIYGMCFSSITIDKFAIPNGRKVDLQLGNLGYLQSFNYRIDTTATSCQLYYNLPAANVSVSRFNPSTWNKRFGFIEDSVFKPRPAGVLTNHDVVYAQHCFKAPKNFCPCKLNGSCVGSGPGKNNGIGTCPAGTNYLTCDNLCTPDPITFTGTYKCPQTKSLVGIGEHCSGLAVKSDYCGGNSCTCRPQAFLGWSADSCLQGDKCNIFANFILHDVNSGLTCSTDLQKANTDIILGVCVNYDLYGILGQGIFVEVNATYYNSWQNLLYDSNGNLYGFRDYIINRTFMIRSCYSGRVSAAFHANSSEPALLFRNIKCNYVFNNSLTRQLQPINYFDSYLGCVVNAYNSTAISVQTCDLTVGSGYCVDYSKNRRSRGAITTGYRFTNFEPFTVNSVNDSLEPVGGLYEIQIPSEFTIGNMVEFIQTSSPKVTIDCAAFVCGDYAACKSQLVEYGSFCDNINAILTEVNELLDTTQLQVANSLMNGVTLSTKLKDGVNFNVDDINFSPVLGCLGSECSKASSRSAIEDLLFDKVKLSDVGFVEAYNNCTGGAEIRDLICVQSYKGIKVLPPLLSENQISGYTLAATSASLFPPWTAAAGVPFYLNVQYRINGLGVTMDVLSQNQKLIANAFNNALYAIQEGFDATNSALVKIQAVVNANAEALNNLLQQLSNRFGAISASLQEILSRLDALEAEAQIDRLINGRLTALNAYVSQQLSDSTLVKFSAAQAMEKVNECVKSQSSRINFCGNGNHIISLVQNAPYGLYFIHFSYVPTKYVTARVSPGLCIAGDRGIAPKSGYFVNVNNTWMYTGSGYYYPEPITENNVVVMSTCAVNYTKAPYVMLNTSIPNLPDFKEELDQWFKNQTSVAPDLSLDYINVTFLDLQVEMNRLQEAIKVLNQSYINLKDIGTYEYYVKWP

[4] = biological target: T4, Trimeric 229E-CoV spike ectodomain (tri-S) (229E-CoV, UniProt P15423 16-1115)
T4 construct: extracellular domain
T4 sequence: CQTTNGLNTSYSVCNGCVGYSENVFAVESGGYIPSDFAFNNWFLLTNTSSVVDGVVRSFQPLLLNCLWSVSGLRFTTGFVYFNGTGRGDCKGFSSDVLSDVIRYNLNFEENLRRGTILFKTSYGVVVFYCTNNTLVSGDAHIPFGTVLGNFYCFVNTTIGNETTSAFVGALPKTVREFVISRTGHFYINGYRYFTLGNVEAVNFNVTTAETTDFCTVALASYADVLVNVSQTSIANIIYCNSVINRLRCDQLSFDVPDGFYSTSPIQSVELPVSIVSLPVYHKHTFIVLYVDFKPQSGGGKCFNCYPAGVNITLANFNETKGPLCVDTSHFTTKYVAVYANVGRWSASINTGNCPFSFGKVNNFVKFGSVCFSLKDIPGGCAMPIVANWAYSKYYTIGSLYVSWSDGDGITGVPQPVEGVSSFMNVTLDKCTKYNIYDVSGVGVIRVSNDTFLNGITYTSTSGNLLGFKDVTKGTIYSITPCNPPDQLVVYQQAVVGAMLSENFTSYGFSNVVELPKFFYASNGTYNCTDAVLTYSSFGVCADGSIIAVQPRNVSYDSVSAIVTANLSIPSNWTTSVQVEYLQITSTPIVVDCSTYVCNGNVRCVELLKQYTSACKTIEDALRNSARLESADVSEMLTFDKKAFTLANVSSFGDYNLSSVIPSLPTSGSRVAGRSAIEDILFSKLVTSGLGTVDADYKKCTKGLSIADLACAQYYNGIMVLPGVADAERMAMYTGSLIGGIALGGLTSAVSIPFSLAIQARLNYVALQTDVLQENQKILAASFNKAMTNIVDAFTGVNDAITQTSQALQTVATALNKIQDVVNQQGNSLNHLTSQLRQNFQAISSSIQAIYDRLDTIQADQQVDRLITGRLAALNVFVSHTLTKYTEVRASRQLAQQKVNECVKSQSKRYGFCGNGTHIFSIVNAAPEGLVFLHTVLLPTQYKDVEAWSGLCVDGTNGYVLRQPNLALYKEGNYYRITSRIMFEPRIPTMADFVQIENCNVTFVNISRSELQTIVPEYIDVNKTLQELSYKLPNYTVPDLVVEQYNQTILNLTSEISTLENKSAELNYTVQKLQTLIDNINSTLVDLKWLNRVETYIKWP

Measured: binding result

B1: Cv2.3132 IgG antibody (antibody, V domains shown)
VH: EVQLVESGGGLVKPGGSLRLSCAASGFTFSDYYMSWIRQAPGKGLEWVSYISSSGSVQYYADSVKGRFTISRDNAKNSLYLQMNSLRAEDTAVYYCARYYYDSSGYWKRLDYWGQGTLVTVSS
VL: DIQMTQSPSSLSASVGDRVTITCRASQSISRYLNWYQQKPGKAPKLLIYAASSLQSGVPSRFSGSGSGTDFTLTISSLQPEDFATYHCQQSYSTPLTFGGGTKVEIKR
notes: also called anti-HR2 antibody Cv2.3132
no binding: all assays above
